From PMC8484813, “Structure and substrate specificity determinants of NfnB, a dinitroaniline herbicide–catabolizing nitroreductase from Sphingopyxis sp. strain HMH” (The Journal of Biological Chemistry, 2021)
Where a chain is given by its changes, count along the chain named. Names and notes keep the numbering of the source.

Tests used:
[1] = target: T1, NfnB (Sphingopyxis granuli, UniProt A0A411G9W7); assay: X-ray crystal structure, […] Å; type: binding; settings: tag-free protein; FMN in pocket at dimer interface
T1 construct: full-length gene in modified pET28b, N-terminal His6 tag with TEV site, E. coli BL21(DE3); tag kept for activity assays, tag-free for crystals
T1 sequence (A0A411G9W7 1-233): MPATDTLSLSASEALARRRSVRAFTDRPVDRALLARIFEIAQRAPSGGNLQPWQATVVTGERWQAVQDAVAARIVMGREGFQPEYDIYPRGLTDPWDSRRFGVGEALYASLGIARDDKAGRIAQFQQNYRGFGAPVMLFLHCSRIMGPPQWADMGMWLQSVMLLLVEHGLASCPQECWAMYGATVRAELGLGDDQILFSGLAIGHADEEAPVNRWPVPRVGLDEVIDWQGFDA

[2] = target: NfnB from Sphingopyxis sp. strain HMH (wildtype) (Sphingopyxis sp. strain HMH); assay: SEC; Superdex 200 column, buffer A (50 mM Tris pH 8.0, 100 mM NaCl); elution peak compared with the monomeric molecular weight
[3] = substrate: CCC(C)Nc1c([N+](=O)[O-])cc(C(C)(C)C)cc1[N+](=O)[O-]; assay: purified protein; type: biochemical, Sphingopyxis granuli; settings: 50 mM Tris pH 7.5, 30 °C
[4] = substrate: CCC(CC)Nc1c([N+](=O)[O-])cc(C)c(C)c1[N+](=O)[O-]; assay: purified protein; type: biochemical, Sphingopyxis granuli; settings: 50 mM Tris pH 7.5, 30 °C
[5] = substrate: CCCN(CCC)c1c([N+](=O)[O-])cc(C(C)C)cc1[N+](=O)[O-]; assay: purified protein; settings: 50 mM Tris pH 7.5, 30 °C
[6] = substrate: CCC(C)Nc1c([N+](=O)[O-])cc(C(C)(C)C)cc1[N+](=O)[O-]; assay: purified protein; settings: pH 7.5; 30.0 °C
[7] = substrate: CCC(CC)Nc1c([N+](=O)[O-])cc(C)c(C)c1[N+](=O)[O-]; assay: purified protein; settings: pH 7.5; 30.0 °C
[8] = substrate: NC(=O)C1=CN([C@@H]2O[C@H](COP(=O)(O)OP(=O)(O)OC[C@H]3O[C@@H](n4cnc5c(N)ncnc54)[C@H](OP(=O)(O)O)[C@@H]3O)[C@@H](O)[C@H]2O)C=CC1; assay: purified protein; settings: pH 7.5; 30.0 °C
[9] = substrate: NC(=O)C1=CN([C@@H]2O[C@H](COP(=O)(O)OP(=O)(O)OC[C@H]3O[C@@H](n4cnc5c(N)ncnc54)[C@H](OP(=O)(O)O)[C@@H]3O)[C@@H](O)[C@H]2O)C=CC1; assay: purified protein; type: biochemical, Sphingopyxis granuli; settings: 12.5 μM butralin, 50 mM Tris pH 7.5, 30 °C, electron donor

Molecule: Cc1cc2nc3c(=O)[nH]c(=O)nc-3n(C[C@H](O)[C@H](O)[C@H](O)COP(=O)(O)O)c2cc1C [FMN]
- X-ray crystal structure, 2.1 Å [1]: We determined the crystal structure of NfnB in the presence of coenzyme FMN

Molecule: NfnB from Sphingopyxis sp. strain HMH (wildtype) (enzyme)
- stoichiometry N [2]: 2

B1: NfnB (Sphingopyxis granuli; Y88A) (protein)
chain: T1 sequence (A0A411G9W7 1-233) with Y88A
notes: full-length gene in modified pET28b, N-terminal His6 tag with TEV site, E. coli BL21(DE3); tag kept for activity assays, tag-free for crystals
- Km ([3]; 200 μM NADPH): 0.59 (0.077) μM
- kcat ([3]; 200 μM NADPH): 2.1 s⁻¹
- Km ([4]; 200 μM NADPH): 2.9 (0.18) μM
- kcat ([4]; 200 μM NADPH): 2.5 s⁻¹
- Km ([5]; 200 μM NADPH): 0.83 (0.16) μM
- kcat ([5]; 200 μM NADPH): 1.2 s⁻¹

B2: NfnB (Sphingopyxis granuli) (protein)
chain: T1 sequence (A0A411G9W7 1-233)
- Km [6]: 2.4 (0.50) μM
- Km [7]: 6.8 (1.7) μM
- Km [8]: 7.3 (1.4) μM

B3: NfnB (Sphingopyxis granuli; R100M) (protein)
chain: T1 sequence (A0A411G9W7 1-233) with R100M
notes: as for B1
- Km [9]: 95 (20) μM
- kcat [9]: 4.9 s⁻¹

B4: NfnB (Sphingopyxis granuli; R100A) (protein)
chain: T1 sequence (A0A411G9W7 1-233) with R100A
notes: as for B1
- Km [9]: 58 (4.5) μM
- kcat [9]: 3.9 s⁻¹

B5: NfnB (Sphingopyxis granuli; Y88F) (protein)
chain: T1 sequence (A0A411G9W7 1-233) with Y88F
notes: as for B1
- Km ([3]; 100 μM NADPH): 0.81 (0.12) μM
- kcat ([3]; 100 μM NADPH): 4 s⁻¹
- Km ([4]; 100 μM NADPH): 1.6 (0.28) μM
- kcat ([4]; 100 μM NADPH): 3.6 s⁻¹
- Km ([5]; 100 μM NADPH): 2.7 (0.17) μM
- kcat ([5]; 100 μM NADPH): 0.66 s⁻¹
